Laboratory results reported in US20130287807A1, “COMPOUNDS FOR TREATING SYMPTOMS ASSOCIATED WITH PARKINSON'S DISEASE” (priority 2008, published 2013).
One block for each molecule: values may come before it.

Columns and labels:
[1] = test system: monoclonal antibody MV-003; test: In vitro inhibition assay (ELISA), MV-003 binding to original epitope; parameters: species or system BalbC mice; conditions: Table 2A; OD at 10 ug peptide compared to original peptide
Protocol: Different amounts of peptides (concentrations ranging from 10 μg to 0.08 μg; serial dilutions; for MV-002: concentrations ranging from 5 μg to 0.03 μg; serial dilutions), derived from Phage Display were incubated with the monoclonal antibody that was used for the screening procedure. Peptides diminishing subsequent binding of the antibody to the original epitope coated on ELISA plates were considered as inhibiting in this assay.
Legend to Table 2A: the inhibition capacity is coded by the following code: Weak inhibition means more peptide is required to lower AB binding than with the original epitope; strong inhibition means similar peptide amounts are required for mimotope and original epitope for lowering AB binding. Mimotopes are compared to the original peptide as standard. OD at 10 ug peptide used in the assay is used to calculate the competition capacity compared to original peptide.

[2] = test system: monoclonal antibody MV-003; test: In vitro binding assay (ELISA), BSA-coupled peptides, parental antibody MV-003; parameters: species or system BalbC mice; conditions: Table 1A; peptide-BSA on plate, compared to original epitope
Protocol: Peptides derived from Phage Display as well as variants thereof were coupled to BSA and bound to ELISA plates (1 μM; as indicated in the respective figures) and subsequently incubated with the monoclonal antibody that was used for the screening procedure to analyse binding capacity of identified peptides.
Legend to Table 1A: the binding capacity is coded by the following binding code: 1:X describes the dilution factor of the parental AB.

amyloid plaques = test: Tg2576 AD mouse model: area occupied by amyloid plaques after mimotope vaccination; type: in vivo, Tg2576 mice; conditions: FIG. 18 Gr2 p4381, Gr3 p4390, Gr4 p4715, FIG. 26 Gr2 p4675, FIG. 19 Gr2 p4395
[3] = test system: Aβ/truncated/modified forms; test: In vivo characterisation of mimotopes: detection of Aβ/truncated/modified forms; parameters: species or system C57/B16 mice; key: +: All peptides listed in Table 5 mount specific immune reactions against full length and/or truncated and modified forms of Aβ or fragments thereof; conditions: Table 5, MV-003 derived mimotopes
Protocol: Inhibiting as well as non-inhibiting peptides were coupled to KLH and injected into mice (wildtype C57/B16 mice; subcutaneous injection into the flank) together with an appropriate adjuvant (aluminium hydroxide). Animals were vaccinated 3-6 times in biweekly intervals and sera were taken biweekly as well. Titers to injected peptides, as well as to an irrelevant peptide were determined with every serum. Furthermore, titers against the recombinant human Aβ protein, and against original peptides were determined respectively. In general sera were analysed by reaction against peptides coupled to Bovine Serum Albumin (BSA) and recombinant full length proteins which were immobilised on ELISA plates. Titers were determined using anti mouse IgG specific antibodies. For detailed results see FIGS. 15, 16 and 17 respectively and FIGS. 23, 24 and 25 respectively.
(§1) Female C57/b16 mice, 5-6 mice per group, were subcutaneously immunized with 30 μg peptide coupled to KLH. Control groups were administered original epitope-KLH conjugates respectively. As adjuvant alum was used (always 1 mg per mouse). […] The in vitro ELISA assay to determine the antibody titer was performed with sera of single mice after each vaccination in a two week interval (see FIGS. 15 and 16 respectively). The wells of the ELISA plate were coated with mimotope-BSA conjugate and an irrelevant peptide-BSA conjugate (negative control). The positive control was performed by reaction of the parental antibody with the respective mimotope-BSA conjugate. The detection was performed with anti-mouse IgG. Additionally, recombinant proteins were immobilised on ELISA plates and sera reacted accordingly. FIGS. 15 to 17 show representative examples for assays used to characterise mimotopes in vivo.
as §1, with “FIGS. 25” for “FIGS. 15”, “and 26” for “and 16”, “respectively). Titers were calculated as OD max/2 in all figures shown.” for “respectively).”, “FIGS. 23, 24 and 25” for “FIGS. 15 to 17”

[4] = biological target: monoclonal antibody MV-001; test: ELISA on peptide-BSA; code 3 = strong binding, OD halfmax 1:>20000
[5] = biological target: monoclonal antibody MV-001; test: inhibition ELISA, competitor coated original epitope p4371; code 2 = strong inhibition (as original epitope)
[6] = biological target: monoclonal antibody MV-003; test: ELISA on peptide-BSA; code 1 = weak binding, OD halfmax 1:<16000
[7] = biological target: monoclonal antibody MV-003; test: inhibition ELISA, competitor coated original epitope p4373; code 1 = weaker than original epitope
[8] = biological target: DAEFRH-peptide-specific monoclonal antibody (Example 1); test: inhibition ELISA, competitor plate-bound DAEFRH-C-BSA
[9] = biological target: DAEFRH-peptide-specific monoclonal antibody (Example 1); test: inhibition ELISA, competitor plate-bound DAEFRH-C-BSA; inhibitory capacity
[10] = biological target: monoclonal antibody MV-004; test: inhibition ELISA, competitor coated original epitope p4372; code 1 = weaker than original epitope
[11] = biological target: monoclonal antibody MV-004; test: ELISA on peptide-BSA; code 1 = weak binding, OD halfmax 1:<24000
[12] = biological target: monoclonal antibody MV-004; test: ELISA on peptide-BSA; code 3 = strong binding, OD halfmax 1:>96000
[13] = biological target: monoclonal antibody MV-004; test: inhibition ELISA, competitor coated original epitope p4372; code 2 = strong inhibition (as original epitope)
[14] = biological target: monoclonal antibody MV-003; test: ELISA on peptide-BSA; code 3 = strong binding, OD halfmax 1:>60000

Molecule: IRYDAPLC [p4397]
- Inhibition Capacity [1]: 1 (Weaker than original epitope (OD of 10 ug peptide below 12 times of original peptide))
- Binding Capacity [2]: 1 (weak binding :<16000)
- Detection of Aβ/truncated/modified forms [3]: +

Molecule: IRWDTSLC [p4728]
- Inhibition Capacity [1]: 2 (strong inhibition (as original epitope; OD of 10 ug peptide below 5 times of original peptide))
- Binding Capacity [2]: 3 (strong binding :>60000)

Molecule: CSEFKH [p4800]
- OD halfmax 1:X (dilution factor of the parental antibody at half-maximal OD) (dilutionfactor(1:x)) [4]: > 20000
- OD at 10 ug peptide relative to OD of original peptide (inhibition ELISA) [5]: < 2 fold

Molecule: TEFRHKAC [p4753]
- OD halfmax 1:X (dilution factor of the parental antibody at half-maximal OD) (dilutionfactor(1:x)) [4]: > 20000
- OD at 10 ug peptide relative to OD of original peptide (inhibition ELISA) [5]: < 2 fold

Molecule: EVWHRHQC [p4417]
- OD at 10 ug peptide as multiple of OD with original peptide [10]: 2 to 5 fold

Molecule: IRWDGGC [p4793]
- OD at 10 ug peptide relative to OD of original peptide (inhibition ELISA) [7]: 5 to 12 fold

Molecule: DWELRIC [Peptide 3002]
- IC50 [8]: > 0.5 µg/mL
- IC50 [9]: > 0.5 µg/mL

Molecule: CHEFRH [p4802]
- OD halfmax 1:X (dilution factor of the parental antibody at half-maximal OD) (dilutionfactor(1:x)) [4]: > 20000
- OD at 10 ug peptide relative to OD of original peptide (inhibition ELISA) [5]: < 2 fold

Molecule: ELWHRAC [p4786]
- OD at 10 ug peptide as multiple of OD with original peptide [10]: 2 to 5 fold
- OD halfmax 1:X (dilution factor of the parental antibody at half-maximal OD) (dilutionfactor(1:x)) [11]: < 24000

Molecule: EVWHRLQC [p4419]
- OD halfmax 1:X (dilution factor of the parental antibody at half-maximal OD) (dilutionfactor(1:x)) [12]: > 96000
- OD at 10 ug peptide as multiple of OD with original peptide [13]: < 2 fold

Molecule: IRWDGC [p4792]
- dilution factor of the parental antibody at OD halfmax (1:X) (dilutionfactor(1:x)) [6]: < 16000
- OD at 10 ug peptide relative to OD of original peptide (inhibition ELISA) [7]: 5 to 12 fold

Molecule: ERWHEKC [p4790]
- OD halfmax 1:X (dilution factor of the parental antibody at half-maximal OD) (dilutionfactor(1:x)) [11]: < 24000
- OD at 10 ug peptide as multiple of OD with original peptide [13]: < 2 fold

Molecule: ELWHRYPC [p4420]
- OD at 10 ug peptide as multiple of OD with original peptide [10]: 2 to 5 fold

Molecule: EAEFRGC [Peptide 3006]
- IC50 [8]: < 0.5 µg/mL
- IC50 [9]: < 0.5 µg/mL

More lines, main results first:

- Binding Capacity [2]: 2 (medium binding :16-60000)
Molecule: IRWDTPC [p4395]
- Inhibition Capacity [1]: 1 (Weaker than original epitope (OD of 10 ug peptide below 12 times of original peptide))
- average occupation (relative area occupied by amyloid deposits in the brain) (amyloid plaques; Tg2576, 6 s.c. injections monthly, peptide-KLH on ALUM, mAb 3A5 staining, cortex and hippocampus, control group 0.35%): 0.21%
- reduction of area occupied by amyloid plaques following mimotope treatment (amyloid plaques; versus PBS-ALUM control group): 38%
- Detection of Aβ/truncated/modified forms [3]: +

- Binding Capacity [2]: 1 (weak binding :<16000)
Molecule: VRWDVYPC [p4396]
- Detection of Aβ/truncated/modified forms [3]: +

- Binding Capacity [2]: 1 (weak binding :<16000)
Molecule: IRYDMAGC [p4399]
- Detection of Aβ/truncated/modified forms [3]: +

- Binding Capacity [2]: 1 (weak binding :<16000)
Molecule: IRWDGC [p4792]
- Inhibition Capacity [1]: 1 (Weaker than original epitope (OD of 10 ug peptide below 12 times of original peptide))

- OD halfmax 1:X (dilution factor of the parental antibody at half-maximal OD) (dilutionfactor(1:x)) [4]: > 20000
- OD at 10 ug peptide relative to OD of original peptide (inhibition ELISA) [5]: < 2 fold
Molecule: HEFRHC [p4803]

- dilution factor of the parental antibody at OD halfmax (1:X) (dilutionfactor(1:x)) [6]: < 16000
- OD at 10 ug peptide relative to OD of original peptide (inhibition ELISA) [7]: 5 to 12 fold
Molecule: IRYDAPLC [p4397]

- IC50 [8]: > 0.5 µg/mL
- IC50 [9]: > 0.5 µg/mL
Molecule: YAEFRGC [Peptide 3005]

- OD at 10 ug peptide as multiple of OD with original peptide [10]: 2 to 5 fold
- OD halfmax 1:X (dilution factor of the parental antibody at half-maximal OD) (dilutionfactor(1:x)) [11]: < 24000
Molecule: EVWHRHC [p4789]

- OD at 10 ug peptide relative to OD of original peptide (inhibition ELISA) [7]: 5 to 12 fold
Molecule: IRWDTPC [p4395]

- OD at 10 ug peptide as multiple of OD with original peptide [10]: 2 to 5 fold
- OD halfmax 1:X (dilution factor of the parental antibody at half-maximal OD) (dilutionfactor(1:x)) [11]: < 24000
Molecule: EVWHRGC [p4788]

- OD halfmax 1:X (dilution factor of the parental antibody at half-maximal OD) (dilutionfactor(1:x)) [4]: > 20000
- OD at 10 ug peptide relative to OD of original peptide (inhibition ELISA) [5]: < 2 fold
Molecule: TLHEFRHC [p4715]

- OD halfmax 1:X (dilution factor of the parental antibody at half-maximal OD) (dilutionfactor(1:x)) [12]: > 96000
- OD at 10 ug peptide as multiple of OD with original peptide [13]: < 2 fold
Molecule: ERWHEKHC [p4418]

- dilution factor of the parental antibody at OD halfmax (1:X) (dilutionfactor(1:x)) [6]: < 16000
Molecule: VRWDVYPC [p4396]

- IC50 [8]: < 0.5 µg/mL
- IC50 [9]: < 0.5 µg/mL
Molecule: DKELRIC [Peptide 3001]

- dilution factor of the parental antibody at OD halfmax (1:X) (dilutionfactor(1:x)) [6]: < 16000
Molecule: IRYDMAGC [p4399]

- dilution factor of the parental antibody at OD halfmax (1:X) (dilutionfactor(1:x)) [14]: > 60000
- OD at 10 ug peptide relative to OD of original peptide (inhibition ELISA) [7]: 5 to 12 fold
Molecule: IRWDQPC [p4756]

- OD at 10 ug peptide as multiple of OD with original peptide [13]: < 2 fold
Molecule: ELWHRAFC [p4665]
